Reference: patent US20260218128A1 (CARSGEN LIFE SCIENCES, published 2026)
Substitutions are numbered along the chain they refer to.

T1: mouse MOG overexpressed on cells (293T-mMOG, K562-mMOG) (mouse, UniProt Q61885 29-246)
T1 construct: whole, on cells
T1 sequence (looked up): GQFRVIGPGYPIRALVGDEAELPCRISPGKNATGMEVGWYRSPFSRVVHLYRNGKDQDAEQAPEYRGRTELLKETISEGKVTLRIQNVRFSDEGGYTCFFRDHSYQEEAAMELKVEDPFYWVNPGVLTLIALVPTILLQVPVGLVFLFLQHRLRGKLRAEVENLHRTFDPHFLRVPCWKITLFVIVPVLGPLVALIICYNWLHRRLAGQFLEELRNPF

T2: recombinant hMOG_his (human, UniProt Q16653 30-154, limits assumed)
T2 construct: also called human MOG antigen; not shown: His tag
T2 sequence: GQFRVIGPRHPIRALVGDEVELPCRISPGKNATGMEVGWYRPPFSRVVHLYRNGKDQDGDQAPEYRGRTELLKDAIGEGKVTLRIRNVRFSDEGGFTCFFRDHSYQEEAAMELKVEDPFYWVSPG

T3: human MOG overexpressed on cells (293T-hMOG, K562-hMOG) (human, UniProt Q16653 30-247)
T3 construct: Cells overexpressing human MOG built by conventional techniques; also called K562-huMOG
T3 chain: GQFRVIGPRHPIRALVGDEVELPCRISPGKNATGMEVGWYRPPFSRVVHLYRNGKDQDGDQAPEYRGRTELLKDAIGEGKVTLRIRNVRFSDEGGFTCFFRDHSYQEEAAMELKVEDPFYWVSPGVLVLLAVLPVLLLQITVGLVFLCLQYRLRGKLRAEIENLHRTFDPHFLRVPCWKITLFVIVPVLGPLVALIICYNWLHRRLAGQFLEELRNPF

B1: A3 (Fab form) (Fab, V domains shown)
VH: QVQLVQSGAEVKKPGSSVKVSCKASGGTFSSYAISWVRQAPGQGLEWMGGIIPIFGTANYAQKFQGRVTITADKSTSTAYMELSSLRSEDTAVYYCARGWYFFDAGFDYWGQGTTVTVSS
VL: DIQMTQSPSTLSASVGDRVTITCRASQSISSWLAWYQQKPGKAPKLLIYDASSLESGVPSRFSGSGSGTEFTLTISSLQPDDFATYYCQQYDSPLLTFGQGTKVEIKR
notes: Fully human anti-MOG clone tested in Fab form; also called antibody A3
B2: A9 (Fab form) (Fab, V domains shown)
VH: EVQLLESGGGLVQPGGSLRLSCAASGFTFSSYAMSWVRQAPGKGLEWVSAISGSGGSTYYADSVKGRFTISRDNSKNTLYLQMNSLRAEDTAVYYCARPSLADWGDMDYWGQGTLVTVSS
VL: DIQMTQSPSTLSASVGDRVTITCRASQSISSWLAWYQQKPGKAPKLLIYDASSLESGVPSRFSGSGSGTEFTLTISSLQPDDFATYYCQQYDQYWTFGQGTKVEIKR
notes: also called antibody A9
B3: A12 (Fab form) (Fab, V domains shown)
VH: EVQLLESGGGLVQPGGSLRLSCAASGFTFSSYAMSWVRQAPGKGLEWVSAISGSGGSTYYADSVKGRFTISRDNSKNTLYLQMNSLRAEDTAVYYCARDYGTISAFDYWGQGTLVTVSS
VL: B2 VL with D92G, Q93I, Y94P
notes: Fully human anti-MOG clone tested in Fab form; also called antibody A12
B4: A11 (Fab form) (Fab, V domains shown)
VH: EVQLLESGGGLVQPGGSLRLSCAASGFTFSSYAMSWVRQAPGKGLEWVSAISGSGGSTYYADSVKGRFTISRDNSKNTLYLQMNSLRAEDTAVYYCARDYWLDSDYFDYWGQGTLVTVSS
VL: B2 VL with Y91V, D92Y, Q93I, W95S
notes: Fully human anti-MOG clone tested in Fab form; also called antibody A11; All [sic]
B5: A1 (Fab form) (Fab, V domains shown)
VH: QVQLVQSGAEVKKPGSSVKVSCKASGGTFSSYAISWVRQAPGQGLEWMGGIIPIFGTANYAQKFQGRVTITADKSTSTAYMELSSLRSEDTAVYYCARGYFSEEAMDYWGQGTTVTVSS
VL: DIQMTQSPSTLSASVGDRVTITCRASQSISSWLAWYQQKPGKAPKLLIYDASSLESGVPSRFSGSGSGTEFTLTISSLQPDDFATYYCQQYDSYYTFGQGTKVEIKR
notes: Fully human anti-MOG clone tested in Fab form; also called antibody A1
B6: A7 (Fab form) (Fab, V domains shown)
VH: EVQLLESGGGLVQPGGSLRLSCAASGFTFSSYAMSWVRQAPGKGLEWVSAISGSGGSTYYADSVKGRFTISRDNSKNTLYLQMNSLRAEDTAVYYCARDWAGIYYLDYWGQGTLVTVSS
VL: B1 VL with Y91S, S93T, P94Y, L95P, L96R
notes: Fully human anti-MOG clone tested in Fab form; also called antibody A7
B7: A5 (Fab form) (Fab, V domains shown)
VH: QVQLVQSGAEVKKPGSSVKVSCKASGGTFSSYAISWVRQAPGQGLEWMGGIIPIFGTANYAQKFQGRVTITADKSTSTAYMELSSLRSEDTAVYYCARAPYSPTYYPFDYWGQGTTVTVSS
VL: B1 VL with D92S, S93M, P94D, L95H
notes: Fully human anti-MOG clone tested in Fab form; also called antibody A5
B8: A4 (Fab form) (Fab, V domains shown)
VH: B1 VH with G99E, F102W, F103P, A105N, G106P
VL: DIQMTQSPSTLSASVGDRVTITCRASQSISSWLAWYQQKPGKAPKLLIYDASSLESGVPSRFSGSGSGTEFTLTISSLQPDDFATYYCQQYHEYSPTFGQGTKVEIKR
notes: Fully human anti-MOG clone tested in Fab form; also called antibody A4

These binders were tested against T1, mouse MOG overexpressed on cells … (assay: flow cytometry, Fab on 293T-mMOG cells, Anti-Fc-FITC secondary, MFI).

Row | binding result | Binder
1 | no binding | B1
2 | no binding | B2
3 | no binding | B3
4 | no binding | B4
5 | no binding | B5

The binders below were run against T2, recombinant hMOG_his (assay: SPR, Biacore T200; MOG_His amine-coupled on CM5, Fab as analyte, 1:1 Langmuir fit).

Row | Kd [nM] | koff [s⁻¹] | kon [M⁻¹ s⁻¹] | Binder
6 | 5.92 | 0.00139 | 234000 | B1
7 | 25.6 | 0.00166 | 65000 | B6
8 | 27.6 | 0.00278 | 101000 | B7
9 | 24 | 0.000516 | 21500 | B8
10 | 2.28 | 0.000287 | 125000 | B2
11 | 6.83 | 0.00103 | 151000 | B3
12 | 17.6 | 0.00432 | 246000 | B4
13 | 7.26 | 0.00193 | 266000 | B5

Molecular target: T3, human MOG overexpressed on cells …
Experiment: flow cytometry, Fab 5 µg/mL on 293T-hMOG cells, Anti-Fc-FITC secondary, MFI; controls 293T cells and NA (no antibody)

Row | binding result | Binder
14 | binds | B1
15 | binds | B6
16 | binds | B7
17 | binds | B8
18 | binds | B2
19 | binds | B3
20 | binds | B4
21 | binds | B5

The binders below were run against T1, mouse MOG overexpressed on cells … (assay: flow cytometry, Fab 5 µg/mL on 293T-mMOG cells, Anti-Fc-FITC secondary, MFI; controls 293T cells and NA (no antibody)).

Row | binding result | Binder
22 | binds | B6
23 | binds | B7
24 | binds | B8
